Laboratory results as given in the nanobody polyreactivity screen of Harvey et al. (2022).

Test: yeast display, Sf9 membrane polyspecificity reagent, FACS + sequencing; frameworks hold sequencing errors
Method in brief: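 Galactose induction of a Saccharomyces cerevisiae BJ5465 synthetic nanobody display library ran 36–48 hours. The cells were then stained for 1 hour at 4 °C with 10% biotinylated, detergent-solubilized Sf9 membrane reagent, pulled down on streptavidin microbeads and FACS-sorted into low and high (top ~1%) gates on expression and reagent-binding fluorescence. Labels for polyreactivity follow the gate of origin.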

| Sequence | polyreactivity (PSR sort gate) |
| --- | --- |
| QVQLVESGGGLVQAGGSLRLSCAASGSTVFGNAMGWYRQAPGKERELVAAITSGGSTNYADSVKGRFTISRDNAKNTVYLQMNSLKPEDTAVYYCAKPSRWGWTGFYAYDYWGQGTQVTVSS | low polyreactivity |
| QVQLVESGGGLVQAGGSLRLSCAASGSTVGLYTMGSYRHAPGKEMELFAAISWSDGSTYYEDSVKGRFTISRDNAKNTVYLQMISLKPEDTAVYYCAAEFLYQQSSWEFDYWGQGTQVTVSS | low polyreactivity |
| QVQLVESGGGLVQAGGSLRLSCAASGSTVRRNTMGWYRQAPGKERELVAGISSSGGSTYYADSVKGRFTISRDNAKNTVYLQINSLKPEDTAVYYCAARFYVSYVGYNYWGQGTQVTVSS | high polyreactivity |
| QVQLVESGGGLVQAGGSLRLSCAASGSTVRVYAMGWYRQAPGKERELVARISITGGTTRYADSVKGRFTISRDNAKNTVYLQMNSLKPEDTAVYYCNADYDWYYWYLYKYPFDYWRQGTQVTVSS | low polyreactivity |
| QVQLVESGGGLVQAGGSLRLSCAASGSTVTSNAMGWSRQAPGKERELVAAISSGGSTYYADSVKGRFTISRDNAKNTVYLQMNSLKPEDTAVYYCAAEWHYIYAYDYWGQGTQVTVSS | low polyreactivity |
| QVQLVESGGGLVQAGGSLRLSCAASGSTVVYYAMGWYRQAPGKERELVAAITSGGSTNYADSVKGRFTISRDNAKITVYLQMNSLKPEDTAVYYCNAEPETTIDYWGQGTQVTVSS | low polyreactivity |
| QVQLVESGGGLVQAGGSLRLSCAASGSTVWKYVMGWYRQAPGKERELVAAISNSGVNTYYADSVKGRFTISRDNAKNTVYLQMNSLKTEDTAVYYCAADRGGYEYWGQGTQVTVSS | high polyreactivity |
| QVQLVESGGGLVQAGGSLRLSCAASGSTVYQYVMGRYRQAPGKVREFVAAITFSGSRTYYADSVKGRFTISRDNAKNTVYLQMNSLKPEDTAVYYCAVHSTSPRGKRYEYWGQGTQVTVSS | high polyreactivity |
| QVQLVESGGGLVQAGGSLRLSCAASGSTVYVYAMGWYRQAPGKERELVATISSSGAITYYADSVKGRFTISRDNAKNTVYLQMNSLKPEDTAVYYCARTGSLLSQVWYNYWGQGTQVTVSS | low polyreactivity |
| QVQLVESGGGLVQAGGSLRLSCAASGSTWYYAMGWYRQAPGKERELVATISSGSRTYYADSVKGRFTISRDNAKNTVYLQMNSLKPEDTAVYYCAARESYAELNYWGQGTQVTVSS | high polyreactivity |
| QVQLVESGGGLVQAGGSLRLSCAASGSTWYYAMGWYRQAPGKERELVATISSGSRTYYADSVKGRFTISRDNAKNTVYLQMNSLKPEDTAVYYCAARRRRFYYQYYRYDYWGQGTQVTVSS | high polyreactivity |
| QVQLVESGGGLVQAGGSLRLSCAASGSTYAGYAMGWYRQAPGKERELVAAISRRGGSTYYADSVKGRFTISRDNAKNTVYLQMNSLKPEDTAVNYCNRDKYLRDPDYDYWGQGTQVTVSS | low polyreactivity |
| QVQLVESGGGLVQAGGSLRLSCAASGSTYANAMGWYRQAPGKERELVAAITDNGGRTYYADSVKGRFTISRDNAKNTFYLQMNSLKPEDTAVYYCAARSSVWGQGTQVTVSS | low polyreactivity |
| QVQLVESGGGLVQAGGSLRLSCAASGSTYARYAMGWYRQAPGKEREFVAAISASGGRTYYADSVKGRFTISRDNAKNTVYLQMNSLKPEDTPVDYCAVRVYAKYFAKYDYWGQGTQVTVSS | high polyreactivity |
| QVQLVESGGGLVQAGGSLRLSCAASGSTYAYAMGWYRQAPGKEREFVAAITRSGGSTYYADSVKGRFTISRDNAKITVYLQMNSLKPEDTAVYYCRGNSTSWRGSQMDYWGQGTQVTVSS | high polyreactivity |
| QVQLVESGGGLVQAGGSLRLSCAASGSTYENAMGWYRQAPGKERELVAVISRSGGSTYYADSVKGRFTISRDNAKNTVYLQMNSLKPEDTAVYYCATVYSAWSWVHGYYVAMDYWGQGTQVTVSS | high polyreactivity |

| Sequence | polyreactivity (PSR sort gate) |
| --- | --- |
| QVQLVESGGGLVQAGGSLRLSCAASGSTYERYAMGWYRQAPGKERELVAAISAIGDSTYYADSVKGRITISRDNANNTVYLQMNSLKPEDTAVYYCAARYTRYHIGRGYYYWGQGTQVTVSS | high polyreactivity |
| QVQLVESGGGLVQAGGSLRLSCAASGSTYFHYAMGWYRQAPGKERELVAAISKSVGTTYYADSVKGRFTISRDNAKNTVYLQMNSLKPEDPAVYYCAADSVITWWAYDYWGQGTQVTVSS | high polyreactivity |
| QVQLVESGGGLVQAGGSLRLSCAASGSTYPYYAMGWYRQAPGKERELVAAITSSTGRTYYADAVKGRFTISRDNAKNTVYLQMNSLKPEDSAVYYCATYSTSVAYHLYYWGQGTQVTVSS | low polyreactivity |
| QVQLVESGGGLVQAGGSLRLSCAASGSTYQGNAMGWYRQAPGKERELVAAISRSGGSTYADSVKGRFTISRDNAKNTVYLQMNSLKPEDTAVYYCAAYSGVGYLWFDYWGQGTQVTVSS | low polyreactivity |
| QVQLVESGGGLVQAGGSLRLSCAASGSTYQNAMGWYRQAPGKEREFVAAISWSGGSTYYADSVKGRFTISRDNAKNTVYLQMNSLKPEDTAVYYCAAYSYFSPRYDYWGQGTQVTVSS | high polyreactivity |
| QVQLVESGGGLVQAGGSLRLSCAASGSTYRGNAMGWYRQAPGKEREFVAAITVSGGSTYYADSVKGRFTISRDNAKNTVFLQMNSLKPEDTAVYYCAARLTYNYYWGQGTQVTVSS | high polyreactivity |
| QVQLVESGGGLVQAGGSLRLSCAASGSTYTNAMGWYRQAPGKERELVAAITWSGGTTYYADSVKGRFTISLDNAKNTVYLPMNSLKPEDTAVYYCAAEYRWYSWGQGTQVSVSS | high polyreactivity |
| QVQLVESGGGLVQAGGSLRLSCAASGSTYTRYAMGLYRQAPGKEMELVATINVSGDRTYYADSVKGRFTISRDNAKNTVYLQMNSLKPEDTAVYYCNKYRYQWPYRRFDYWGQGTQVTVSS | high polyreactivity |
| QVQLVESGGGLVQAGGSLRLSCAASGSTYYRYDMGWYRQAPGKERELCAAINWNGGTTYYADSVKGRFTISRDNAKNNVYLQMNSLKPEDTAVYYCTARSNSYVYPRLYNYWGQGTQVTVSS | high polyreactivity |
| QVQLVESGGGLVQAGGSLRLSCAASGSTYYTYAMGWYRQAPGKERELVAAISWSGGTTYYADSVKGRFTISRDNAKNTVSLQMNSLKPEATAVYYCASDRDGILKANVYWGQCTQVTVSS | low polyreactivity |
| QVQLVESGGGLVQAGGSLRLSCAASGTFAVYTMGWYRQAPGKERELVAAISSGGSTYYADSVKGRFTISRDNAKNTVYLQMNSLKPEDTAVYYCAKVPGRYRADRYWDHYSHDYWGQGTQVTVSS | high polyreactivity |
| QVQLVESGGGLVQAGGSLRLSCAASGTFAVYTMGWYRQAPGKERELVAAITKSGGSTYYADSVKGRFTISRDNAKNTVYLQMNRLKPEDTAVYYCATRDSPRTKNGYYYWGQGTQVTVSS | high polyreactivity |
| QVQLVESGGGLVQAGGSLRLSCAASGTFGLYAMGWYRQAPGKERELVAAIRARGGSTYYADSVKGRFTISRDNAKNTLYLQKNSLKPEETAVYYCAAEFWDVALARKQWYDYWGQGTQVTVSS | high polyreactivity |
| QVQLVESGGGLVQAGGSLRLSCAASGTFSFYAMGWYRQAPGKERELVATIRSGGRTYYADSVKGRFTISRDNAKNTVYFQINSLKPEDTAVYYCAKTGFLGLRQYGYWGQGTQVTVSS | high polyreactivity |
| QVQLVESGGGLVQAGGSLRLSCAASGTFTGNAMGSYRQAPGKERELVAAITWSGGRTYYADSVKGRFTISRDNAKNTVYLQMNSLKPEDTAVYYCNAADEYLQERFWSDAFDYWGQGTQVTVSS | high polyreactivity |
| QVQLVESGGGLVQAGGSLRLSCAASGTFVSYVMGWYSQPPGKERELVAAINVRGASTYYADSVKGRFTISRDNAKITVYLQMNTLKPEDTAVYYCATEYVSGPEYDYWGQGTQVTVSS | low polyreactivity |
